Test results from PMC9287719.
Like-named read-outs stand apart in the source and are kept apart here.

Legend:
[1] = biological target: Recombinant FcγRIIa (R131) with C-terminus Biotin (human) (UniProt P12318)
[2] = biological target: Recombinant FcγRIIb with C-terminus Biotin (human) (UniProt P31994)
[3] = biological target: Recombinant FcγRIIIa (F158) with C-terminus Biotin (human) (UniProt P08637)
[4] = biological target: Recombinant FcγRIIa (H131) with C-terminus Biotin (human) (UniProt P12318)
[5] = biological target: Recombinant FcγRIIIa (V158) with C-terminus Biotin (human)
Target sequence in this assay (P08637 17-208 F176V): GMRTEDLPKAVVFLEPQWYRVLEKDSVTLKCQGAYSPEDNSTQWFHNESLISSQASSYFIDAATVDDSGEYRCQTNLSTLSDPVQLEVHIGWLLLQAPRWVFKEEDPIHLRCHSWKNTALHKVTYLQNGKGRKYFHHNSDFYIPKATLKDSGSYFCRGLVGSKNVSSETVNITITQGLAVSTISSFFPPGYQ

[6] = biological target: Recombinant FcγRIIa (H131) with C-terminus Biotin (human) (UniProt P12318); remark: listed apart in the source
[7] = biological target: Recombinant FcγRIIa (R131) with C-terminus Biotin (human) (UniProt P12318); remark: listed apart in the source
[8] = biological target: Recombinant FcγRI with C-terminus Biotin (human) (UniProt P12314)
[9] = biological target: Recombinant FcγRIIIa (V158) with C-terminus Biotin (human); remark: listed apart in the source
Target sequence in this assay (P08637 17-208 F176V): as above

[10] = biological target: Recombinant FcγRIIa (H131) with C-terminus Biotin (human) (UniProt P12318); remark: listed apart in the source
[11] = biological target: Recombinant FcγRIIa (R131) with C-terminus Biotin (human) (UniProt P12318); remark: listed apart in the source
[12] = biological target: Recombinant FcγRI with C-terminus Biotin (human) (UniProt P12314); remark: listed apart in the source
[13] = biological target: Recombinant FcγRIIb with C-terminus Biotin (human) (UniProt P31994); assay: other; qualitative only
[14] = biological target: Recombinant FcγRIIIa (F158) with C-terminus Biotin (human) (UniProt P08637); assay: split reporter (BiFC, NanoBiT); homogeneous competition assay in solution for FcγRIIa and FcγRIIIa variants: sample competes with IgG-LgBiT tracer for FcγR-Biotin mixed 1:1 with Streptavidin-SmBiT; 30–60 min; PBS with 10% superblock; IC50 equivalent to apparent affinity (KD)
[15] = biological target: Recombinant FcγRIIIa (V158) with C-terminus Biotin (human); assay: as above
[16] = biological target: Recombinant FcγRIIa (H131) with C-terminus Biotin (human) (UniProt P12318); assay: as above
[17] = biological target: Recombinant FcγRIIa (R131) with C-terminus Biotin (human); assay: as above

Sequence of Human IgG2 (P01859 whole entry, looked up): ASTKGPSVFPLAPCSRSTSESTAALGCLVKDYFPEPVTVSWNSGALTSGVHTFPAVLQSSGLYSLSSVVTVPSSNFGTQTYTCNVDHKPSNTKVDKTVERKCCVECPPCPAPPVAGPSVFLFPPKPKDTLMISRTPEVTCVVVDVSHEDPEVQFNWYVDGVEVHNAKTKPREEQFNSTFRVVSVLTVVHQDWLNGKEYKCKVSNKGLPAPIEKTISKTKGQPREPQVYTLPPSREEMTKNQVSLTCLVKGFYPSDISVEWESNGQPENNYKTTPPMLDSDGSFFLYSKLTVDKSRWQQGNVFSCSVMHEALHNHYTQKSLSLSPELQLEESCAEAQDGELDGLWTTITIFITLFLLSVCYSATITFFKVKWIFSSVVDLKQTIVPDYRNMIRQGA
Sequence of Recombinant FcγRIIa (H131) with C-terminus Biotin (human) (P12318 34-217): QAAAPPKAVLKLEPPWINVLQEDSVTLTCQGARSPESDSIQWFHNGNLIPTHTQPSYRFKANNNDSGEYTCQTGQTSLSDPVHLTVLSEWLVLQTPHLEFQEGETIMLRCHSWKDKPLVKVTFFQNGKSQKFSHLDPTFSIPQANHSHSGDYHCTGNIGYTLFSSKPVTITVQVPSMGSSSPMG
Sequence of Recombinant FcγRIIa (R131) with C-terminus Biotin (human) (UniProt P12318) (P12318 34-217 H167R): as the sequence (P12318 34-217) above, with H134R counted along it
Sequence of Human IgG4 (P01861 whole entry, looked up): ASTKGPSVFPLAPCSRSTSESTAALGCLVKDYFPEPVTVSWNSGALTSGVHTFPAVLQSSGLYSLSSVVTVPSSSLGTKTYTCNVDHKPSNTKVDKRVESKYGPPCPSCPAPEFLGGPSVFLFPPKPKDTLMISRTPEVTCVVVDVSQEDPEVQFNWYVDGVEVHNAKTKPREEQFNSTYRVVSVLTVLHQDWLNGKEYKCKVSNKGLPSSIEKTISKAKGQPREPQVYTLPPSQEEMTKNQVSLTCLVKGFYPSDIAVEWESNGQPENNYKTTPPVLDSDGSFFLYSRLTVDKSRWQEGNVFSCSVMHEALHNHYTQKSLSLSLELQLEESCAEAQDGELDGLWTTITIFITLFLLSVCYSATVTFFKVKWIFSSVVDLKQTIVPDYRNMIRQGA
Sequence of Recombinant FcγRIIb with C-terminus Biotin (human) (P31994 43-217): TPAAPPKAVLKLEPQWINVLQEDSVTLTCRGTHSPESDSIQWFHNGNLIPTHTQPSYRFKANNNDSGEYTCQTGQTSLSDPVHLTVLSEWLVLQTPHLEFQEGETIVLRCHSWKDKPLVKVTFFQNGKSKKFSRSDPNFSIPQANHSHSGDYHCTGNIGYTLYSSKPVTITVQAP
Sequence of Recombinant FcγRIIIa (F158) with C-terminus Biotin (human) (P08637 17-208): as the sequence (P08637 17-208 F176V) above, with V160F counted along it
Sequence of Recombinant FcγRI with C-terminus Biotin (human) (P12314 16-292): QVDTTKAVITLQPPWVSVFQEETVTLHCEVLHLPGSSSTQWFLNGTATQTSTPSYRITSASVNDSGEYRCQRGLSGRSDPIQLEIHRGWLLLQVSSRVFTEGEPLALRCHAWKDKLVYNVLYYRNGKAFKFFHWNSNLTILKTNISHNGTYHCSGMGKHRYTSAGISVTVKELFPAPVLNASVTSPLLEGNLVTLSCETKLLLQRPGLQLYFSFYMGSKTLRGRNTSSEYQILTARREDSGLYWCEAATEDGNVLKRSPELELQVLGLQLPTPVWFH

Gammagard (from UniProt P01857)
IC50 [1]: 178 nM
IC50 [2]: 1120 nM
IC50 [3]: 95.5 nM
IC50 [4]: 55.8 nM
IC50 [5]: 12.5 nM

Human IgG2 (from UniProt P01859)
IC50 [6]: 77.1 nM
IC50 [7]: 519 nM
IC50 [8]: 29.4 nM
IC50 [9]: 2040 nM

Human IgG4 (from UniProt P01861)
IC50 [10]: 102 nM
IC50 [11]: 128 nM
IC50 [12]: 1.07 nM
IC50 [13]: 573 nM

Human IgG (human polyclonal IgG) (antibody)
IC50 [14]: 107 nM
IC50 [15]: 18.4 nM
IC50 [16]: 11.3 nM
IC50 [17]: 42.6 nM
